The values that follow come from patent publication US20220372167.

In data set [1] the target is T1, murine IGFBP-2 with C-terminal 6His tag, P47877.
T1 chain: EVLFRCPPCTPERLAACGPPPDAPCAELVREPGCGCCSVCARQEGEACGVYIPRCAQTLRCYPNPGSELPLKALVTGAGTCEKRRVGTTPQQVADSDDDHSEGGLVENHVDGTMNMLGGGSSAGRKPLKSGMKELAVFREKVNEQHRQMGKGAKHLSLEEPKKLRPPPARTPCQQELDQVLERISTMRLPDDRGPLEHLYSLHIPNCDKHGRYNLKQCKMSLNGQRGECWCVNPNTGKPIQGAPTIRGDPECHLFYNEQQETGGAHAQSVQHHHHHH

Data set [2] has as its target T2, murine IGFBP-4 with C-terminal 6His tag, P47879.
T2 chain: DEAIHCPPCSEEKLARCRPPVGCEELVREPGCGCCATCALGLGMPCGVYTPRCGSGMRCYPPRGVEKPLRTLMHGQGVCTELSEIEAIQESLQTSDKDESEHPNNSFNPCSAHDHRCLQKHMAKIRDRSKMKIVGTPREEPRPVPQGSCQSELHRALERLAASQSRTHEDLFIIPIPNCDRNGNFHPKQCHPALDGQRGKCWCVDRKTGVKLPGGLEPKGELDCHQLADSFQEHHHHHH

Data set [3] deals with T3, murine IGFBP-5 with C-terminal 6His tag, Q07079.
T3 chain: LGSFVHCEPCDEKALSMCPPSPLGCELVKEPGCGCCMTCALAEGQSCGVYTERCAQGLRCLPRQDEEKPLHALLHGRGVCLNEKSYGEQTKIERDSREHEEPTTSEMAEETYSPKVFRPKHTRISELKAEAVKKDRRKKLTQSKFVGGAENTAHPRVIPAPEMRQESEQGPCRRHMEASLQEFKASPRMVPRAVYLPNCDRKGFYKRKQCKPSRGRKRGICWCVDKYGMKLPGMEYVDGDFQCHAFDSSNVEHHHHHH

Data set [4] deals with five representative anti-PAPP-A antibodies generated from yeast display libraries.
The target of data set [5] is T4, human IGFBP-2 with N-terminal 6His tag, P18065.
T4 chain: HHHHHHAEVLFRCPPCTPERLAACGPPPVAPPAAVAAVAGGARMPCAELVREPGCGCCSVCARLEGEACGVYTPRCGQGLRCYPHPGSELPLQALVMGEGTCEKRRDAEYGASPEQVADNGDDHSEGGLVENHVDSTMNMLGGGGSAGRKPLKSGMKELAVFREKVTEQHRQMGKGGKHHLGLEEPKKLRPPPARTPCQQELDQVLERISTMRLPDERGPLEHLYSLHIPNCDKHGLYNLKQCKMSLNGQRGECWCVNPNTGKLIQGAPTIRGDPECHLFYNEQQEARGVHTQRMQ

The target of data set [6] is T5, human IGFBP-4 with N-terminal 6His tag, P22692.
T5 chain: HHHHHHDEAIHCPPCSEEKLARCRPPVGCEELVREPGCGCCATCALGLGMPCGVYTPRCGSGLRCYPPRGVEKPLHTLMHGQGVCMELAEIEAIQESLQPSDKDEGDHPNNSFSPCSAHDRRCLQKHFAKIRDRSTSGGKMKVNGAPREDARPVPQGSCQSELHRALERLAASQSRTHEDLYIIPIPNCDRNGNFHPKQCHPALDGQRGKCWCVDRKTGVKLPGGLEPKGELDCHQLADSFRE

For data set [7], the target named is human IGFBP-5 with N-terminal 6His tag, P24593.
Sequence of human IGFBP-5 with N-terminal 6His tag, P24593 (P24593 other isoform, or with tags, fused parts or gaps): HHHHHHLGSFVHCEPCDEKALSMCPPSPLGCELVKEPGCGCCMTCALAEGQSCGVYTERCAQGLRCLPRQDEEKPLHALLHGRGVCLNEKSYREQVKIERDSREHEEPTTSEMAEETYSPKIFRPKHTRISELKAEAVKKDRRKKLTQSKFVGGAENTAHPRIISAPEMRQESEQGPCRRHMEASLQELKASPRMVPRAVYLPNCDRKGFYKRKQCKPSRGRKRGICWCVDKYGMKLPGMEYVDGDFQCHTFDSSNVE

B1: murine PAPP-A protein with C-terminal C-myc and Flag tags (protein)
chain: RGAEEPSPPSRALYFSGRGEQLRLRADLELPRDAFTLQVWLRAEGGQKSPAVITGLYDKCSYTSRDRGWVMGIHTTSDQGNRDPRYFFSLKTDRARKVTTIDAHRSYLPGQWVHLAATYDGRLMKLYMNGAQVATSAEQVGGIFSPLTQKCKVLMLGGSALNHNFRGHIEHFSLWKVARTQREIVSDMETRGLHTPLPQLLLQENWDNVKRTWSPMKDGNSPQVEFSNAHGFLLDTNLEPPLCGQTLCDNTEVISSYNQLPSFRQPKVVRYRVVNIYDDHHENPTVSWQQIDFQHQQLAEAFQHYNISWELEVLNINSSSLRHRLILANCDISKIGDEKCDPECNHTLTGHDGGDCRQLRYPAFMKKQQNGVCDMDCNYERFNFDGGECCDPDITDVTKTCFDPDSPHRAYLDVNELKNILRLDGSTHLNIFFANSSEEELAGVATWPWDKEALMHLGGIVLNPSFYGIPGHTHTMIHEIGHSLGLYHIFRGISEIQSCSDPCMETEPSFETGDLCNDTNPAPKHKFCGDPGPGNDTCGFHGFFNTPYNNFMSYADDDCTDSFTPNQVSRMHCYLDLVYQSWQPSRKPAPVALAPQVVGHTMDSVMLEWFPPIDGHFFERELGSACDLCLEGRILVQYAFNASSPMPCGPSGHWSPREAEGHPDVEQPCKSSVRTWSPNSAVNPHTVPPACPEPQGCYLELEFRYPLVPESLTIWVTFVSSDWDSSGAVNDIKLLTISGKNISLGPQNVFCDIPLTIRLRDVGEEVYGIQIYTLDEHLEIDAAMLTSTVDSPLCLQCKPLQYKVLRDPPLLEDVASLLHLNRRFMDTDLKLGSVYQYRIITISGNEESEPSPAAIYTHGSGYCGDGVIQKDQGEECDDMNKVNGDGCSLFCKQEVSFNCIDEPSRCYFHDGDGMCEEFEQKTSIKDCGVYTPQGFLDQWASNASVSHQDQQCPGWVVIGQPAASQVCRTKVIDLSEGISQHAWYPCTITYPYYHLPQTTFWLQTYFSQPMVAAAVIIHLVTDGTYYGDQKQETISVQLLDTKDQSHDLGLHVLSCRNNPLIIPVVHDLSQPFYHSQAVHVSFSSPLVAISGVALRSFDNFDPVTLSSCQRGETYSPAEQSCVHFACQAADCPELAVGNASLNCSSNHHYHGAQCTVSCQTGYVLQIQRDDELIKSQVGPSITVTCTEGKWNKQVACEPVDCGIPDHHHVYAASFSCPEGTTFGRRCSFQCRHPAQLKGNNSFLTCMEDGLWSFPEALCELMCLAPPPVPNADLQTARCRENKHKVGSFCKYKCKPGYHVPGSSRKSKKRAFKTQCTQDGSWQEGTCVPVTCDPPPPKFHGLYQCTNGFQFNSECRIKCEDSDASQGRGSNIIHCRKDGTWSGSFHVCREMQGQCSAPNQLNSNLKLQCPDGYAIGSECAISCLDHNSESIILPVNLTVRDIPHWMNPTRVQRIVCTAGLQWYPHPALIHCVKGCEPFMGDNYCDAINNRAFCNYDGGDCCTSTVKTKKVTPFPMSCDLQNDCACRDPEAQEHNRKDLRGYSHG
In the case of B1, the “enzymatic cleavage of IGFBP by PAPP-A” value was “cleavage of both human and murine IGFBP-4 and IGFBP-2 by PAPP-A” in data set [1]; “cleavage of both human and murine IGFBP-4 and IGFBP-2 by PAPP-A” in data set [2]; “PAPP-A's ability to cleave IGFBP-5” in data set [3].

B2: human PAPP-A protein with C-terminal C-myc and Flag tags (protein)
chain: EARGATEEPSPPSRALYFSGRGEQLRVLRADLELPRDAFTLQVWLRAEGGQRSPAVITGLYDKCSYISRDRGWVVGIHTISDQDNKDPRYFFSLKTDRARQVTTINAHRSYLPGQWVYLAATYDGQFMKLYVNGAQVATSGEQVGGIFSPLTQKCKVLMLGGSALNHNYRGYIEHFSLWKVARTQREILSDMETHGAHTALPQLLLQENWDNVKHAWSPMKDGSSPKVEFSNAHGFLLDTSLEPPLCGQTLCDNTEVIASYNQLSSFRQPKVVRYRVVNLYEDDHKNPTVTREQVDFQHHQLAEAFKQYNISWELDVLEVSNSSLRRRLILANCDISKIGDENCDPECNHTLTGHDGGDCRHLRHPAFVKKQHNGVCDMDCNYERFNFDGGECCDPEITNVTQTCFDPDSPHRAYLDVNELKNILKLDGSTHLNIFFAKSSEEELAGVATWPWDKEALMHLGGIVLNPSFYGMPGHTHTMIHEIGHSLGLYHVFRGISEIQSCSDPCMETEPSFETGDLCNDTNPAPKHKSCGDPGPGNDTCGFHSFFNTPYNNFMSYADDDCTDSFTPNQVARMHCYLDLVYQGWQPSRKPAPVALAPQVLGHTTDSVTLEWFPPIDGHFFERELGSACHLCLEGRILVQYASNASSPMPCSPSGHWSPREAEGHPDVEQPCKSSVRTWSPNSAVNPHTVPPACPEPQGCYLELEFLYPLVPESLTIWVTFVSTDWDSSGAVNDIKLLAVSGKNISLGPQNVFCDVPLTIRLWDVGEEVYGIQIYTLDEHLEIDAAMLTSTADTPLCLQCKPLKYKVVRDPPLQMDVASILHLNRKFVDMDLNLGSVYQYWVITISGTEESEPSPAVTYIHGRGYCGDGIIQKDQGEQCDDMNKINGDGCSLFCRQEVSFNCIDEPSRCYFHDGDGVCEEFEQKTSIKDCGVYTPQGFLDQWASNASVSHQDQQCPGWVIIGQPAASQVCRTKVIDLSEGISQHAWYPCTISYPYSQLAQTTFWLRAYFSQPMVAAAVIVHLVTDGTYYGDQKQETISVQLLDTKDQSHDLGLHVLSCRNNPLIIPVVHDLSQPFYHSQAVRVSFSSPLVAISGVALRSFDNFDPVTLSSCQRGETYSPAEQSCVHFACEKTDCPELAVENASLNCSSSDRYHGAQCTVSCRTGYVLQIRRDDELIKSQTGPSVTVTCTEGKWNKQVACEPVDCSIPDHHQVYAASFSCPEGTTFGSQCSFQCRHPAQLKGNNSLLTCMEDGLWSFPEALCELMCLAPPPVPNADLQTARCRENKHKVGSFCKYKCKPGYHVPGSSRKSKKRAFKTQCTQDGSWQEGACVPVTCDPPPPKFHGLYQCTNGFQFNSECRIKCEDSDASQGLGSNVIHCRKDGTWNGSFHVCQEMQGQCSVPNELNSNLKLQCPDGYAIGSECATSCLDHNSESIILPMNVTVRDIPHWLNPTRVERVVCTAGLKWYPHPALIHCVKGCEPFMGDNYCDAINNRAFCNYDGGDCCTSTVKTKKVTPFPMSCDLQGDCACRDPQAQEHSRKDLRGYSHG
With B2, in data set [4], the “PAPP-A cleavage of human IGFBP4 at one antibody concentration (50 nM)” value is recorded as “the five representative antibodies effectively blocking cleavage of human IGFBP4”. For the same protein, the “enzymatic cleavage of IGFBP by PAPP-A” value in data set [5] was “cleavage of both human and murine IGFBP-4 and IGFBP-2 by PAPP-A”; in data set [6] it was “cleavage of both human and murine IGFBP-4 and IGFBP-2 by PAPP-A”; in data set [7] it was “PAPP-A's ability to cleave IGFBP-5”.
